Measured values published in the nanobody polyreactivity screen of Harvey et al. (2022).

Test: yeast display, Sf9 membrane polyspecificity reagent, FACS + sequencing; frameworks hold sequencing errors
Summary of the method: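 Using colony PCR, genes from sorted yeast display clones were amplified, then sequenced on MiSeq at 2 × 250 and filtered by CDR length. The clones had been stained with 10% biotinylated, detergent-solubilized Sf9 membrane reagent for 1 hour at 4 °C and sorted by FACS into low and high (top ~1%) gates on anti-HA and streptavidin fluorescence. Polyreactivity labels come from the gate of origin.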

| Sequence | polyreactivity (PSR sort gate) |
| --- | --- |
| QVQLVESGGGLVQAGGSHRLSCAASGTFKAYAMGWYRQAPGKERELVAVISNGGSTYYADSVKGRFTISRDNAKNTVYLQMNSLKPEDTAVYYCAARRGWYAYRFLSGSRLHYYWGQGTQVTVSS | high polyreactivity |
| QVQLVESGGGLVQAGGSLRLSCAASGSIFSYYVMGWYRQAPGKERELVAAISYSGGRTYYADSVKGRFTISRDNAKNTVYLQMNSLKPEDTAVYYCAASRRVGEVSYYYWGQGTQVTVSS | high polyreactivity |
| QVQLVESGGGIVQAGGSLRLSCAASGSTIGGYAMGWYRQAPGKERELVAAIRRSGDSTYYADSVKGRFTISRDNAKNTVYLQMNSLKPEDTAVYYCNTDRTHSYQYGGYDYWGQGTQVTVSS | low polyreactivity |
| QVQLVESGRGLVQAGGSLRLSCAASGIIFGGYSMGWYRQAPGKERELVAAISGIGSRTYYADSVKGRFTISRDNAKNTVYLQMNSLKPEDTAVYYCNADQVYGYNYWGQGTQVTVSS | high polyreactivity |
| QVQLVESGGRLVQAGGSLRLSCAASGRIFALNAMGWYRQAPGKERELVAAITWGGGSTYYADSVKGRFTISRDNAKNTVYLQMNSLKPVDTAVYYCAARYVFWPYWISGDSWGQGTQVTVSS | low polyreactivity |
| QVQLVESGGGLVQAGGSLRLSCAASGSTLRSYAMGWYRQAPGKERELVAAIDWDGGRTYYADSVKGRFTISRDNAKNTVYLQMNSLKPEDTAVYYCNTSAGWSNGKDEGDFYSGFDYWGQGTQVTVSS | low polyreactivity |
| QVQLVESGGGLVQAGGRLRLSCAASGRTFDVYAMVWYRQAPGKERELVAAISKRGGSTYYADSVKGRFTISRDNAKNTVYLQMNSLKPEDTAVYYCNAYQTGWKGYDYWGQGTQVTVSS | high polyreactivity |
| QVQLVESGGGLVQAGGSLRLSCAASGSTFRKYAMGWYRQAPGKERELVAAISRGGTSTYYADSVKGRFTISRDNAKNTVYLQMNSLKPEDTAVYYCRYFRYSYGTKYDYWGQGTQVTVSS | high polyreactivity |
| QVQLVESGGGLVQAGGSLRLSCAASGRIFVYNAMGWYRQAPGKERELVAAITYSVDSTYYADSVKGRFTISRDNAKNTVYLQMNSLKPEDTAVYYCAADDFHYVIHAYYSSGVDYWGQGTQVTVSS | low polyreactivity |
| QVQLVESGGGLVQAGGSLRLSCAASGSIFSYYVMGWYRQAPGKERELVAAITRSGGSTYYADSVKGRFTISRDNAKNTVYLQMNSLKPEDTAVYDCNALWRVRGDYWGQGTQVTVSS | high polyreactivity |
| QVQLVESGGGLFQAGGSLRLSCAASGRIFHGYDMGWYRQAPGKERELVAAITWRGGSTYADSVKGRFTISRDNGKNTVYLQMNSLKPEDTAVYYCAADTVYYGYFFYYWGQVTQVTVSS | high polyreactivity |
| QVQLVESGGALVQAGGSLRLSCAASGFIFFQYAMGWYRQAPGKERELVAAISGSGVTTYYADSVKGRFTISRDNAKNTVYLQMNSLKPEDTAVYYCNAALRWKYDWGQGTQVTVSS | low polyreactivity |
| QVQLVESGGGLVQAGGSLRLSCAASGSTFGYNAMGWYRQAPGKERELVAAISRSGGRTYYADSVKGRFTISRDNAKNTVYLQMNSLKPEDTAVYFCATYYTNKVPARYYWGQGTQVTVSS | high polyreactivity |
| QVQLVESGGGLVQARGSLRLSCAASGNIFYRYAMGWYRQATGKERELVAAISFSGGGTYYADSVKGRFTISRDNAKNTVYLQMNSLKPEDTAVYYCAAYRRGCYDYWGQGTQVTVSS | high polyreactivity |
| QVQLVESGGGLVQAGGSLRLICAASGRIFVKYAIGWYRQAPGKERELVASITSGGRTNYADSVKGRFTISPDIAKNTVYLQMNSLKPEDTAVYYCAAVWRTASTQYYYWGQGTQVTVSS | high polyreactivity |
| QVQLVESGGGLVQAGGSLRLSSAASGITFPWYAMGWSRQAPGKERELVAAISRSGGSTYADSVKGRFTISRDNAKNTVYLQMNSLKPEDTAVYYCAAGTYSGSRFDYWGQGTQVTVSS | high polyreactivity |
| QVQLVESGGGLVQAGGSLRLSCAASGRIFTIYAMGWYRQAPGKERELVAAISDRGTRTYYADSVKGRFTISRDNAKNTVYLQMNSLKPEDTAVYYCATDALYTYGYDYWGQGTQVTVSS | low polyreactivity |
| QVQLVESGGGLVQAGGSLRLSCAASGNTFSSNAMGWYRQAPGKERELVAGITKSGGRTYYADSVKGRFTISRDNAKNTVSLQMNSLKPEDTAVYYCAAVGSTVFGTRYYYWGQGTQVTVSS | high polyreactivity |
| QVQLVESGGGLVQAGGSLRLSCAASGSTFRWNAMGWYRQAPGKERELVAAITWSGGSTYYADSVKGRFTISRDNAKNTVYLQMNSLKPEDTAVYYCNAGGLFQYDSWGQGTQVTVSS | low polyreactivity |
| QVQLVESGGGLVQAGGSLRLSCDASGSTFRGYAMGWYRPAPGKERELVAAITSDGSTNYADSEKGRFTISRDNAKNTVYLQMNSLKPEDTAVYYCNVKATRKWWDRRVYRYNYWGQGTQVTVSS | high polyreactivity |
| QVHLVESGGGLVQAGGSLRLTCAASGITLDGNAMGWYRQAPGKERELVAAITSGGGTNYADSVKGRFTISRDNAKNTVYLQMNSLKPVDTAVYYCCADKPNDGVGRLYDYWGQGTQVTVSS | low polyreactivity |
| QVQLVESGGGIVQAGGSLRLSCAASGRIIRYYAMGWYRQAPGKERELVAAITRGGSTNYADSVKGRFTISRDNAKNTVYLLMNSLKPEDTAVYYCATRQSWYPRWMDYWGQGTQVTVSS | high polyreactivity |

| Sequence | polyreactivity (PSR sort gate) |
| --- | --- |
| QVQLVESGGGLVQAGGSLRLSCAASGSIFVRNAMGWYRQAPGKERELVAAITSDVNTYYADSVKGRFTISRDNGKNTVYLQMNSLKPEDTAVYYCAKGVTSQPNDPAPFPRYEYWGQGTQVTVSS | low polyreactivity |
| QVHLVESGGGLVQAGGRLRLSCAASGFTFAHYDMGWYRQAPGKERELVAAITWSGSSTFYADSLKGRFTISRDNAKNTVYLQMYCMKPEDNAVYYCNADYDVSYWFYQDVIYDYWGQGTQVTVSS | low polyreactivity |
| QVQLVESGGGLVQAGGSLRLSCAASGSIFNENPMGSYRQAPGKERELVAVITHRTGSTYYADSVKGRFTISRDNAKYTFYLQLTSLTPEDTAVYYCATRTRRNRYRGGEYDYWGQGTQVTVSS | low polyreactivity |
| QVQLVESGGGLVQAGGSRRLSCAASGCILRDNAMGWYRQAPGKEREVVAAISYSGDLTYYADSVKGRFTISRDNAKNTVYLQMNSLIPEDTAVYDCAALYPKVRGYRSDDLWGQGTQVTVSS | high polyreactivity |
| QVQLVESGGGLVQAGGSLRLSCAASGYTFLHYAMGWYRQAPGKERELVAAISGSGGRTYYADSVKGRFTISRDNAKNTVYLQMNSLKPEDTAVYYCAAPYSSRNYYYWGQGTQVTVSS | high polyreactivity |
| QVQLVESGGGLVQAGGSLRLSCAASRRIYYWYVMGWYRQAPGKERELVASISWSGGSTYYADSVKGRFTISRDNAKNTVYLQMNSLKPEDTAVYYCNAGSVYTVSLPGHPYDYWGQGTQVTVSS | low polyreactivity |
| QVQRVESGGGLVQAGGSLRLSCAASGSTFSIYAMGLYRQEPGKERELVAAISFSDDSTYYADSVKGRFTISRDNAKNTVYLQMNSLNPEDTEVYYCAAEGYWGEPFDYDGALEYWGQGTQVTVSS | high polyreactivity |
| QVQLVESGGGLVQAGGSLRLSCAASGRTSVLYAMGWYRQAPWKEREFVAAITWNSGSTYYADSVKGRFTISRDNAKNTVYLQMNSLKPEDTAVYYCNADYYFSSYRSTYDYWGQGTQVTVSS | low polyreactivity |
| QVQLVESGGGLVQAGGSLRLSCAASGSTFSGNTMGWYRQAPGKERELVADINWSSGSTYYADSVKGRFTISRDNAKNTVYLQMNSLKPEDTAVYYCAAVEPFYDFDYWGQGTQVTVSS | low polyreactivity |
| QVQLVESGGRLVQAGGSLRLSCAASGRTFSTNVMGRYRQAPGKVRELVAAITTSSSRTYYADSVKGRFTISRDNAKNTVYLQMNSLKPEDTAVYYCAAGIHGSWSFDYWGQGTQVTLSS | low polyreactivity |
| QVQLVDSGGGLVQAGGSLRLSCAASGFIFAHYAMGWYRPAPGKESELVAAISSRGGSTYYADSVKGRFTISRDNAKNTVYLQMNSLKPEDTAVYYCAKARHRPARGYEYWGQGTQVTVSS | high polyreactivity |
| QVQLVESGGGLVQAGGSLRLSCAASGSIFQGYPMGWYRQAPGKERELVATIRWSSGSRTNYADSVKGRFTISRDNAKNTVYLQMNSLKPEDTAVYYCAAGSRRYKYDYWGQGTQVTVSS | high polyreactivity |
| QVQRVESGGGLVQAGGSLRLSCAASGFIFGRYAMGWYRQAPGKERELVAASTWGGDSTYYADSVKGRFTISRDNAKNTVYLQMNSLKPEDTAVYYCAAYPQRRFYWQYRYDYWGQGTQVTVSS | high polyreactivity |
| QVQLLESGGGLVQAGGSLRLSCAASGSTFGVYAMGWYRQAPGKEREFVAAINARGTRTRYADSVKGRFTISRDNAKNTVYLQMNSLKPDDTAVYYCAAVWYGYYSIDTYGYWGQGTQVTVSS | high polyreactivity |
| QVQLVESVGGLVQAGGSLRIICAASGSIFTDNAMGWYRQAPGTERELVAAISRSGGNTYYADSVKGRFTISRDNAKNTVYLQMNSLKPEDTAVYYCAARQKGTGNYWGQGTQVTVSS | high polyreactivity |
| QVQLVESVGGLVQAGGSLRLSCAASGSIFWSNAMGWYRQAPGKERELVARISTSGGRTYYADSVKGRFTISRDNAKNTVYLQMNSLKPEDTAVYYCNAGKLYYRWLYDYWGQGTQVTVSS | high polyreactivity |
| QVQLVESGGGLVQAGGSLRLSCADSGSTFYTNAMGWYRQAPGKERELVAAINRSGGRTYYADSVKGRFTISRDNAKNTVYLQMNSLKPEDPAVYYCAARYPVRFSTDTARDYYWGQGTQVTVSS | low polyreactivity |
| QVQLVESGGGLVQAGGSLRLSCAASGFIFGSYAMGWYRQAPGKERELVAAITSDGNTDYADSVKGRFTISRDNAKNTVYLQMNSLKPEDTAVYYCNKPYGAETALREFDYWGQGTQVTVSS | low polyreactivity |
| QVQLVESGGGLVQAGGSLRLSCAASGLIFIAYAMGWYRQAPGKERELVAAISSSGGSTYYADSVKGPFTISRDNAKNTFYLQMNSLKPEDTGVYYCAADRFDWGTGRYGYWVQGTQVTVSS | low polyreactivity |
| QVQLVESGGGLVQAGGSLRLSCAASGLTFPYYVMGWYRQAPGKERELVAAIDDGGGSTYYADSVKGRFTISRDNAKNTVYLQMNSLKPEDTAVYYCAAQVDYLAHYGYWGQGTQVTVSS | low polyreactivity |
| QVQLVESGGGLVQAGGSLRLSSAASGRTFKYYGLGWYRQPPGKESQLVATISRSSSRTYYADSVKGRFTISRDNAKNTVYFKMNSLKPEDSAVYYCASLAPRSYDYDYWGKGTQVTVSS | high polyreactivity |
